Results reported in patent US20240010720A1 (IOMX THERAPEUTICS, published 2024).
Read-outs that look alike come from different tables or passages of the source. One block for each binder: values may come before it.

Key:
[1] = molecular target: T1, His-tagged extracellular domain (ECD) of human IGSF11 (VSIG3) (human, UniProt Q5DX21 23-241); experiment: ELISA: IgG1-format antibody titrated on coated His-tagged IGSF11; x axis nM IgG, y axis absorbance per legend
T1 construct: partly bought (SinoBiological 13094-H08H); also called IGSF11-HIS; HIS-IGSF11; not shown: HIS6 tag
T1 sequence: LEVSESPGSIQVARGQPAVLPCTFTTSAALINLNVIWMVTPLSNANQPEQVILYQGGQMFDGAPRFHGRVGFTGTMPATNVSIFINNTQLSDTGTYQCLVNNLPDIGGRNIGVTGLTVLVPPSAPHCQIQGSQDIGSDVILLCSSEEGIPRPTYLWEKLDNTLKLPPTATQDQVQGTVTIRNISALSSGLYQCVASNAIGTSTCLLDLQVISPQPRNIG

[2] = molecular target: T2, human IGSF11 (VSIG3) on cells (human, UniProt Q5DX21 23-431); experiment: FACS, IgG1-format antibodies; CL-11 cells (C), a line that does not express IGSF11 (specificity control), IGSF11 siRNA (KD)
T2 sequence: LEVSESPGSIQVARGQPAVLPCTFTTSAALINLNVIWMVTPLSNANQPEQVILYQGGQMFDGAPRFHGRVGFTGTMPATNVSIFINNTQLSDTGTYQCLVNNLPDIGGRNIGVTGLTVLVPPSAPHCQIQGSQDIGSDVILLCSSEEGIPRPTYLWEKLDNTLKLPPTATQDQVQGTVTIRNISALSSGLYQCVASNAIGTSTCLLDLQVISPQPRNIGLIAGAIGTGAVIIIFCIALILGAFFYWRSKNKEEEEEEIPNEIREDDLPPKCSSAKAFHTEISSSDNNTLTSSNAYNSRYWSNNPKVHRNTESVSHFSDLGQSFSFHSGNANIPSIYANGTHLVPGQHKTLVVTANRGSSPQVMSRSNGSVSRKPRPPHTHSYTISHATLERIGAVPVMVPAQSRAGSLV

[3] = molecular target: T2, human IGSF11 (VSIG3) on cells; experiment: FACS, IgG1-format antibodies; CL-11 cells (C), a line that does not express IGSF11 (specificity control), scrambled control siRNA (SC)
[4] = molecular target: T3, IGSF11 ECD fused to murine-Fc (human; mouse, UniProt Q5DX21 23-241); experiment: ELISA, IgG
T3 construct: also called Fc-fusion IGSF11 ECD; full-length ECD of IGSF11; not shown: murine Fc
T3 sequence: T1 sequence

[5] = molecular target: T2, human IGSF11 (VSIG3) on cells; experiment: FACS, IgG1-format antibodies; DMS 273 cells (D) treated with scrambled control siRNA (SC)
[6] = molecular target: T3, IGSF11 ECD fused to murine-Fc; experiment: ELISA: IgG titrated on coated murine-Fc fusion of IGSF11 ECD; x axis IgG nM, y axis absorption per legend
Text: (§1) Expi293 cells (ThermoFisher) were transiently transfected with DNA sequences encoding the applicable IGSF11 domain-mFc fusions according to the manufacturer's instructions, and cultured under conditions suitable to the IGSF11 domain fusion. Cell supernatants were harvested 5 days post transfection and the expressed Fc-protein purified via Protein A affinity chromatography (GE Healthcare). IGSF11 domain Fc-fusion proteins were re-buffered into PBS pH7.4. […] The surface was blocked with 2% (w/v) skim milk powder in PBST. After three wash cycles with PBST, a dilution series of IgG-format ABPs was transferred to the immobilized the Fc-fusion IGSF11 ECD or the IGSF11 domains and incubated for 1 h. After removing all unbound antibodies by 3 wash cycles with PBST, bound IgG ABPs were detected with a goat anti-human IgG antibody conjugated with horseradish peroxidase. After three wash cycles with PBST the ELISA was developed with TMB substrate.

[7] = molecular target: T4, recombinant human IGSF11 (VSIG3) extracellular domain (ECD) (human, UniProt Q5DX21 23-241, biotinylated where captured on streptavidin); experiment: BLI, IgG1
T4 construct: also called biotinylated recombinant ECD-IGSF11; IGSF11 (ECD domain)
T4 sequence: T1 sequence

[8] = molecular target: T2, human IGSF11 (VSIG3) on cells; experiment: FACS, IgG1-format antibodies; M579-A2-luc cells (M) treated with scrambled control siRNA (SC)
[9] = molecular target: T1, His-tagged extracellular domain (ECD) …; experiment: blocking ELISA: IgG pre-incubated with His-tagged IGSF11 ECD, complexes added to immobilised VSIR-Fc; y axis % remaining IGSF11 binding, x axis IgG nM per legend
Experimental: All binding steps were for 1 hour at room temperature, and all washing steps were three times washing with PBS/Tween (0.05%).

[10] = molecular target: T4, recombinant human IGSF11 (VSIG3) …; experiment: BLI, apparent affinity, IgG captured, IGSF11 ECD 100 nM
Text: Briefly, various APBs were loaded on an optical biosensor via a commercially available Capture System (AHC sensors, ForteBio).

[11] = molecular target: T4, recombinant human IGSF11 (VSIG3) …; experiment: SPR, IgG1
[12] = molecular target: T1, His-tagged extracellular domain (ECD) …; experiment: ELISA EC50 grade, IgG1
[13] = molecular target: T2, human IGSF11 (VSIG3) on cells; experiment: FACS, IgG1-format antibodies; DMS 273 cells (D) treated with IGSF11 siRNA (KD)
[14] = molecular target: T2, human IGSF11 (VSIG3) on cells; experiment: FACS, IgG1-format antibodies; M579-A2-luc cells (M) treated with IGSF11 siRNA (KD)
[15] = molecular target: T2, human IGSF11 (VSIG3) on cells; experiment: FACS, HEK cells expressing IGSF11
[16] = molecular target: T1, His-tagged extracellular domain (ECD) …; experiment: blocking ELISA: antibody pre-incubated with His-tagged IGSF11 ECD, complexes added to immobilised VSIR-Fc; y axis % remaining IGSF11 binding to VSIR, x axis nM IgG per legend
[17] = molecular target: T2, human IGSF11 (VSIG3) on cells; experiment: FACS, DMS 273 cells
[18] = molecular target: T5, IgC2 domain of human IGSF11 fused to murine IgG2a Fc-region (human; mouse, UniProt Q5DX21 137-241); experiment: ELISA, IgG
T5 construct: also called IgC2-like domain mFc fusion; not shown: murine IgG2a Fc-region
T5 sequence: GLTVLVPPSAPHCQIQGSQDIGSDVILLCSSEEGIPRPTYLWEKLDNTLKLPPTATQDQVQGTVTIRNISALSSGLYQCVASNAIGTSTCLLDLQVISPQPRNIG

[19] = molecular target: T3, IGSF11 ECD fused to murine-Fc; experiment: ELISA: IgG titrated on coated murine-Fc fusion of IGSF11 ECD; x axis IgG nM, y axis absorption per legend; remark: listed apart in the source
Text: as §1

[20] = molecular target: T6, IgV domain of human IGSF11 fused to murine IgG2a Fc-region (human; mouse, UniProt Q5DX21 23-143); experiment: ELISA, IgG
T6 construct: also called IgV-like domain mFc fusion; not shown: murine IgG2a Fc-region
T6 sequence: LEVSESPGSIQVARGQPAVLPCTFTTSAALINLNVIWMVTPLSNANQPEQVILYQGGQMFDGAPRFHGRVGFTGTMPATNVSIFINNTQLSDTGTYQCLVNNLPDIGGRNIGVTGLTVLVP

[21] = molecular target: T3, IGSF11 ECD fused to murine-Fc; experiment: ELISA, IgG; remark: listed apart in the source
Text: as §1

percentage binding (FACS heat-map) [2]: 3.47% | percentage binding (FACS heat-map) [3]: 3.6% | EC50 [18]: 1 to 20 nM | EC50 [4]: 1 to 20 nM | percentage binding (FACS heat-map) [5]: 64.4% | Kd [7]: 20 to 30 nM | percentage binding (FACS heat-map) [8]: 11.6% | Kd [11]: > 500 nM | EC50 [12]: 0.02 to 0.05 nM | percentage binding (FACS heat-map) [13]: 3.81% | percentage binding (FACS heat-map) [14]: 2.01% | EC50 [15]: > 50 nM
B2: A-026 (IgG1 format) (antibody, V domains shown)
VH: QVQLQESGPGLVKPSQTLSLTCTVSGGSISSGGYYWSWIRQHPGKGLEWIGYIYYSGSTYYNPSLKSRVTISVDTSKNQFSLKLSSVTAADTAVYYCASWSLGTSNHGWFDPWGQGTLVTVSS
VL: QSVLTQPPSASGTPGQRVTISCSGSSSNIGSNTVNWYQQLPGTAPKLLISDNNNRPSGVPDRFSGSKSGTSASLAITGLQAEDEADYYCQSYDSNLSGWVFGGGTKLTVL
notes: human IgG1 format

EC50 [20]: < 1 nM | EC50 [21]: 1 to 20 nM
B4: C-025 (IgG1 format) (antibody, V domains shown)
VH: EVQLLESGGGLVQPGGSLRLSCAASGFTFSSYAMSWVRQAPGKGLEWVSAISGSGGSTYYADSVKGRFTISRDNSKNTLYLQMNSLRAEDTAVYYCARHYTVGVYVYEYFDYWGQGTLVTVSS
VL: SYELTQPPSVSVSPGQTASITCSGDKLGDKYASWYQQKPGQSPVLVIYQDSKRPSGIPERFSGSNSGNTATLTISGTQAEDEADYYCQSYATAGFVFGGGTKLTVL
notes: wildtype human IgG1 and kappa or lambda constant regions

Continued, binder first:

B1: A-006 (IgG1 format) (antibody, V domains shown)
VH: EVQLVESGGGLIQPGGSLRLSCAASGFTVSSNYMSWVRQAPGKGLEWVSVIYSGGSTYYADSVKGRFTISRDNSKNTLYLQMNSLRAEDTAVYYCARGNPYYYGDLQVNFDYWGQGTLVTVSS
VL: QAVVTQEPSLTVSPGGTVTLTCASSTGAVTSGYYPNWFQQKPGQAPRPLIYSTSNKHSWTPARFSGSLLGGKAALTLSGVQPDDEAEYYCLLYYGGDWVFGGGTKLTVL
notes: human IgG1 format; also called A-006-like ABP
EC50 (read off the curve) [1]: ~0.01 nM | percentage binding (FACS heat-map) [2]: 3.04% | percentage binding (FACS heat-map) [3]: 2.31% | EC50 [4]: < 1 nM | percentage binding (FACS heat-map) [5]: 81.1% | EC50 (read off the curve) [6]: ~0.5 nM | Kd [7]: 1 to 10 nM | percentage binding (FACS heat-map) [8]: 75.3% | IC50 (read off the curve) [9]: ~4 nM | Kd [10]: < 15 nM | Kd [11]: 250 to 500 nM | EC50 [12]: < 0.02 nM | percentage binding (FACS heat-map) [13]: 5.72% | percentage binding (FACS heat-map) [14]: 2.59% | EC50 [15]: 10 to 50 nM | IC50 (read off the curve) [16]: ~4 nM | EC50 [17]: > 50 nM

B3: A-024 (IgG1 format) (antibody, V domains shown)
VH: QMQLVQSGAEVKKPGSSVKVSCKASGGTFSSYAISWVRQAPGQGLEWMGWISAYNGNTNYAQKLQGRVTMTTDTSTSTAYMELRSLRSDDTAVYYCASLGSYGYTGAFDIWGQGTMATVSS
VL: QSALTQPASVSGSPGQSITISCTGTSSDVGGYNYVSWYQQHPGKAPKLMIYEVSNRPSGVSNRFSGSKSGNTASLTISGLQAEDEADYYCSSYTSSSTLVVFGGGTKLTVL
notes: also called A-024-like ABP
EC50 [4]: < 1 nM | EC50 (read off the curve) [19]: ~0.4 nM | Kd [11]: > 500 nM | EC50 [12]: 0.02 to 0.05 nM | EC50 [17]: < 10 nM
